Laboratory results as given in the Human Domainome abundance scans (Beltran et al. 2025).

B1: Double-stranded RNA-specific adenosine deaminase, residues 296 to 358; numbered along this chain, P55265 (parent)
chain: MAEIKEKICDYLFNVSDSSALNLAKNIGLTKARDINAVLIDMERQGDVYRQGTTPPIWHLTDK

Variants of: B1
Test: abundance fitness (aPCA) (normalised: wild type 0, dead -1); higher = more abundant; growth selection in yeast, the domain comes from the species named
Details: Homo sapiens

Abundance fitness of substitutions, site by site:
L21: S 0.05, C -0.136, G 0.009, H -0.046, W -0.071, R -0.02, D 0.339, V -0.015, A 0.263, E 0.476, M 0.029, Q 0.158, I -0.044, Y -0.111, N 0.067, T 0.125
D17: A 0.405, M -0.499, T -0.501
I27: Y -0.944, V -0.162, W -0.818, R -0.584, S -0.435, N -0.538, P -0.452, D -0.277, K -0.324, G -0.611, H -0.548, Q -0.507, M -0.359, A -0.471, E -0.274, L -0.01
V15: H 0.489, W -0.213, Y -0.202, E -0.025, T -0.392, R -0.231, K -0.089, A -0.147, D -0.463, S -0.137, M -0.203, F 0.045, I -0.2, Q -0.288, C -0.365, G -0.377, P -0.64
A32: K -0.37, H -0.204, L 0.25, T -0.018, G -0.091, Q -0.034, F -0.091, N -0.232, V 0.108, I 0.076, Y -0.088, R -0.485, P -0.162, C -0.121, E 0.159, M 0.088, S -0.103
L23: V -0.316, D -0.313, G -0.403, K -0.531, H -0.453, Y -0.678, E -0.329, C -0.474, A -0.368, F -1.03, I 0.372, Q -1.2, S -0.424, R -0.592, M -0.374, W -0.682, T -0.421, P -0.299
K25: D -0.141, M -0.282, T -0.32, A -0.213, C -0.36, H -0.083, E -0.124, P -0.928, Q -0.024, W -0.82, I -0.578, N -0.234, L -0.404, S -0.542, Y -0.626
D34: A -0.243, C -0.978, G -0.592, F -0.75
N14: V -0.31, W -0.426, S 0.017, E 0.102, L -0.121, T 0.086, F -0.385, Y 0.045, H 0.085, C -0.215, D -0.312, A -0.014, Q 0.008, P -0.658, R 0.285, K 0.434, G -0.236, M -0.189
F13: K 0.538, M 0.339, T 0.227, Y 0.079, R 0.577, S 0.403, H 0.1, N 0.366, G 0.335, Q 0.541, P -0.216, W -0.051, V -0.061, C 0.19, I 0.142, A 0.543, E 0.383
N26: E 0.075, C -0.338, K -0.057, Q 0.009, T -0.403, W -0.327, S -0.103, I -0.271, V 0.044, Y -0.114, R -0.202, A 0.189, L -0.429, P -0.629, D -0.539, H 0.215, G -0.001, F -0.328, M -0.328
L12: Y -0.044, W -1.01
A24: P -0.49, G -0.495, N -0.722, I -0.552, V -0.58, C -0.179, H -0.488, W -0.707, T -0.276, L -0.513, Y -0.406, F -0.566, Q -0.171, K -0.616, E -0.447, D -0.838, M -0.418, R -0.544
R33: H 0.094, S 0.342, E 0.564, P -0.272, K 0.056, A 0.365, V 0.327, G 0.207, F 0.19, D 0.417, C 0.157, T 0.263, I 0.262, Y 0.185, L -0.028, N 0.195
N22: L -0.479, E 0.165, G -0.314, P -0.219, Y -0.386, W -0.609, R -0.682, V -0.18, K -0.424, S -0.323, T -0.141, M -0.493, D 0.004, H -0.117, Q 0.162, I -0.339, A -0.297
G28: K -0.229, T -0.655, V -0.713, A -0.453, M -0.805, E -0.15, H -0.508, I -1.01, D -0.186, L -0.97, R -0.802, W -0.886, Y -0.982, Q -0.606, N -0.43, S -0.474, F -0.796, P -0.234
T30: Y 0.141, S 0.107, A 0.128, G -0.054, E 0.361, D 0.413, M -0.204, H -0.252, N 0.127, R -0.352, Q -0.021, F -0.246, I -0.299, C -0.002, P -0.199, V -0.201, L -0.312
S18: Q -0.481, W -0.535, F -0.816, T -0.388, E -0.49, V -0.699, M -0.684, D -0.461, R -0.721, H -0.366, K -0.549, N -0.607, Y -0.698, P -0.83, I -1.01
K31: C 0.237, S 0.285, W -0.635, T 0.066, D 0.36, E 0.251, I -1.14, R -0.006, L -0.53, V -0.67, N 0.144, P 0.041, F -0.695, A -0.098, G -0.049, Y 0.173, H 0.367, Q 0.097
L29: Q -0.026, Y -0.136, G 0.006, A -0.103, D 0.035, W -0.633, R -0.356, H -0.325, P -0.336, C -0.125, T -0.167, E 0.045, M 0.154, V -0.1, S -0.17, K -0.54, I -0.025, F -0.107, N 0.041
S19: T -0.236, Y -0.5
A20: T -0.295, L -0.42, I -0.68, S -0.228, F -0.311, K -0.606, W -0.627, Q -0.472, P -0.673, N -0.481, D -0.64, V -0.446, E -0.216, H -0.578, Y -0.901, G -0.45, R -0.615
S16: Q -0.124, M -0.379, T -0.407, H -0.108, K 0.206, C -0.25, L -0.525, Y -0.684, V -0.249, N -0.006, A -0.018, P -0.1, I -0.543, W -0.514, D -0.342
